Measured values as given in article PMC2892321.

Target: postsynaptic density 95 (PSD95), wild type (mouse (endogenous in hippocampus and spinal cord)) (UniProt Q62108)
Test: co-IP

Sequence of postsynaptic density 95 (PSD95), wild type (mouse (endogenous in hippocampus and spinal cord)) (Q62108 whole entry): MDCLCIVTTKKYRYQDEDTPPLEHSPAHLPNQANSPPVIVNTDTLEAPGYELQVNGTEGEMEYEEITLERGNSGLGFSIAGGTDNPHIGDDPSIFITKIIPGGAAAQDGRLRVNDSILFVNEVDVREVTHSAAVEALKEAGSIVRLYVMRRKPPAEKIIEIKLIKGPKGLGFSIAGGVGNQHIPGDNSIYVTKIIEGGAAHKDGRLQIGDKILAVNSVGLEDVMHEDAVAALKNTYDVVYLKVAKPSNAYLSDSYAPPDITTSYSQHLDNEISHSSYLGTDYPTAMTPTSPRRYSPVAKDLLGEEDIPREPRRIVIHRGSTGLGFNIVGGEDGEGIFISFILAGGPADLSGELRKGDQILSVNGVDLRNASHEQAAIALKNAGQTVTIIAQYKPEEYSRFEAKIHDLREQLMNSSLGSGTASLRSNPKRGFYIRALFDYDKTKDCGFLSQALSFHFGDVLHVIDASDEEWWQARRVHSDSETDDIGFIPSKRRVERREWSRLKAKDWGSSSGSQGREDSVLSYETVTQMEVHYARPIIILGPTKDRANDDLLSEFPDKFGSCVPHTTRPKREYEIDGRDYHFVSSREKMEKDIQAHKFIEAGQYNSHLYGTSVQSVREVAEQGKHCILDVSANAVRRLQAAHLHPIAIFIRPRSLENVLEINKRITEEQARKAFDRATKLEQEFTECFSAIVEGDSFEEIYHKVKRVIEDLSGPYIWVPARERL

PI(3)K-C2α/PSD95 ratio (densitometry), ipsilateral to formalin: 0.053
PI(3)K-C2α/PSD95 ratio (densitometry), naive: 0.019
Substance: phosphatidylinositol-3-kinase-C2α (PI(3)K-C2α) (from UniProt Q61194 1-1686) (enzyme)
